Tests used:
TdT [1] = biological target: T1, TdT (Homo sapiens, UniProt P04053); details: Ashley et al., Virology 77, 367-375 (1977); cited from earlier work
TdT [2] = biological target: T1, TdT; experiment: pH regulation of TdT enzyme activity (extension reactions, TBE-Urea gel); format: biochemical
Procedure: The objective of these experiments is to determine the range of pH in which TdT is active.
1. A buffer of 50 mM Tris (base) and 50 mM Boric acid was prepared and its pH (initially at ˜8.5) was adjusted to 6.05, 6.9, 7.93, 8.96, 10.02, and 11.07 using acetic acid and sodium hydroxide. These buffers serve as 2× buffers in the experiments.
2. Extension reactions were assembled as follows:
3. Each reaction was incubated for 15 minutes and then loaded on a TBE-Urea gel with an unextended initiator for comparison.
In the following experiment, TdT was incubated at a pH for 15 minutes without the nucleotide or the initiator, it was then combined with the nucleotide and the initiator in such a way that the final pH of the mixture during polymerization would be different from that of the initial 15 min incubation.
1. A buffer of 50 mM Tris (base) and 50 mM Boric acid was prepared and its pH (initially at ˜8.5) was adjusted to 6.05, 6.9, 7.93, 8.96, 10.02, and 11.07 using acetic acid and sodium hydroxide. These buffers serve as 2× buffers in the experiment.
2. Extension reactions were assembled in two parts:
Eight different extension reactions were assembled with following pH used for the buffer in part 1 and part 2:
3. Both parts of each reaction were incubated for 15 minutes, they were then mixed to form the 20 μl total, then loaded on a TBE-Urea gel: […]

B1: TdT: template-independent DNA polymerase which extends single-stranded oligonucleotides (protein, UniProt P04053 1-509, looked up)
DNA nucleotidylexotransferase: MDPPRASHLSPRKKRPRQTGALMASSPQDIKFQDLVVFILEKKMGTTRRAFLMELARRKGFRVENELSDSVTHIVAENNSGSDVLEWLQAQKVQVSSQPELLDVSWLIECIRAGKPVEMTGKHQLVVRRDYSDSTNPGPPKTPPIAVQKISQYACQRRTTLNNCNQIFTDAFDILAENCEFRENEDSCVTFMRAASVLKSLPFTIISMKDTEGIPCLGSKVKGIIEEIIEDGESSEVKAVLNDERYQSFKLFTSVFGVGLKTSEKWFRMGFRTLSKVRSDKSLKFTRMQKAGFLYYEDLVSCVTRAEAEAVSVLVKEAVWAFLPDAFVTMTGGFRRGKKMGHDVDFLITSPGSTEDEEQLLQKVMNLWEKKGLLLYYDLVESTFEKLRLPSRKVDALDHFQKCFLIFKLPRQRVDSDQSSWQEGKTWKAIRVDLVLCPYERRAFALLGWTGSRQFERDLRRYATHERKMILDNHALYDKTKRIFLKAESEEEIFAHLGLDYIEPWERNA
For B1, the “optimal pH” value (TdT [1]) is listed as 6.85, the TdT enzymatic activity (TdT [2]; pH ranges above 6 and below 11) is listed as “highly active” and the TdT enzymatic activity (TdT [2]; pH ranges below 6 and above 11) is listed as “substantially inactivated”.
